Consider 4 substances from US20050059107A1.

Experiment [1] deals with HLA-DP4 molecule DP402 (DPA1*0103/DPB1*0402) (human) (UniProt P20036). In words: competition ELISA, tracer bUNK1.
Experiment [2] concerns the target HLA-DP4 molecule DP401 (DPA1*0103/DPB1*0401) (human) (UniProt P20036). As to the kind of experiment: competition ELISA, tracer bUNK1. Background: An ELISA detects its analyte on a solid surface through an enzyme-linked reagent.
The target of experiment [3] is HLA-DP4 molecule DP402 (DPA1*0103/DPB1*0402) (human) (UniProt P20036). In words: competition ELISA; capped, '>10 000' in Table VII.
Experiment [4] addresses HLA-DP4 molecule DP401 (DPA1*0103/DPB1*0401) (human) (UniProt P20036). As to the kind of experiment: competition ELISA; capped, '>10 000' in Table VII.
For experiment [5], the target named is HLA-DP4 molecule DP402 (DPA1*0103/DPB1*0402) (human) (UniProt P20036). As to the kind of experiment: competition ELISA.
Experiment [6] addresses HLA-DP4 molecule DP401 (DPA1*0103/DPB1*0401) (human) (UniProt P20036). In words: competition ELISA.

As a reminder, the IC50 is the concentration needed to halve the response being measured.

With Api m1 73-90 (peptide), the IC50 in experiment [1] was over 10 µM; in experiment [2], over 10 µM; in experiment [3], over 10 µM; in experiment [4] it was 10 µM.
With Api m1 65-82 (peptide), the IC50 in experiment [1] was 6.5 µM; in experiment [2] it was 50 µM; in experiment [5], 6.5 µM; in experiment [6] it was 50 µM. Moreover, the relative binding activity vs UNK1 (IC50 ratio) in experiment [1] was 371 fold.
On to Api m1 81-98 (peptide), for which the IC50 in experiment [2] and in experiment [6] was 2.25 µM throughout.
For Api m1 69-86 (peptide), the IC50 is over 10 µM in experiment [1], over 10 µM in experiment [2], over 10 µM in experiment [3] and 10 µM in experiment [4].
